One data set concerns TyrR (Escherichia coli). In words: cell_activity. Particulars: beta-galactosidase reporter, M9 + 2 mM L-tyrosine, 37 C; 29.1 without tyrosine; indirect evidence of binding.
Data set [1] concerns the target T1, TyrR (tyrosine repressor) (Erwinia herbicola) (UniProt Q9ZIB7).
T1 sequence: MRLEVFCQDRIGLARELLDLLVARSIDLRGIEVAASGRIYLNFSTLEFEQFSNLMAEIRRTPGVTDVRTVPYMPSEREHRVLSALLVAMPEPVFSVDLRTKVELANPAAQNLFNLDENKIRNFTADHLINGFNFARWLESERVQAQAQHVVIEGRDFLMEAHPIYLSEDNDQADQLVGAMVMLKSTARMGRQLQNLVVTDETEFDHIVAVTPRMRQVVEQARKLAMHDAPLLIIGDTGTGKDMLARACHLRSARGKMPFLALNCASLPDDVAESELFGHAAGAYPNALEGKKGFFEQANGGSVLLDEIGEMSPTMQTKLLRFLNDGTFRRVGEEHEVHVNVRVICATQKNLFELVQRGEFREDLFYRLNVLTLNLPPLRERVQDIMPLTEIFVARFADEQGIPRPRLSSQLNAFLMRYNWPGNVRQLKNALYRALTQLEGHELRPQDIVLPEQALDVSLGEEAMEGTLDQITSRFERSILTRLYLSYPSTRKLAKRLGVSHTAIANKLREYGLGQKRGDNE
In words: cell_activity. Particulars: beta-galactosidase reporter, M9 + 2 mM L-tyrosine, 37 C; 35.5 without tyrosine; indirect evidence of binding.

Consider one substance from patent US6146878.

Regarding “tpl promoter/enhancer region (about 480 bp, tpl'-'lac fusion)”, the activity came out at 324 Miller units with TyrR (Escherichia coli) and 656 Miller units in data set [1].
